Results on 12 sequences are retold here after a protein production outcome set (Wang et al. 2014).

This data set can be described thus: label from the status in PepcDB records.

Turning to “MTRQGWLVPCLSHGKDDQLQDELSELSKAYRKKFQTDLHTKSGDIIDPSGEFLYVYLDEENYRICRQSMVLVSNAPDGLIATTLEPYSDSYTFRQVREQLQAFSGDGGRINYSRNEHSSSYFLTIQASNEFKHVGAVRNTFGQSKDIWKRRMPDASQPLDYHLIAVGCSAFLPEAALDDVESDGAVLEHHHHHH”, the protein production result was “not failed”.

For the sequence “MTRSKKFIIMITTVIVIIAFIFLALFAWKIYAERNYNNTNIREAAQFNPLIRETDYYVQVSDPLKKNGKNQVGAYTYMTDGFDKDGVGHTVTFNGMKKLKKGAYLKVSLFLGEAKSYNEISKDKVPHKPLKKLEMQQLEHHHHHH”, the protein production entry is given as “not failed”.

As for “MTRSVWLKADSEVGDWETRKRRITAGIEAGVDWVLVDEEDVDRVSELGEINIAAFTNGDVHVMEAEAEDSEADATIVGKDGEGDGTVDLPSDFSGSADLSTLRQNGAAPDGGYVRIFDEDYEAFAEAVAAEADFTIVIGENWQIIPLENLIARVGEETDLIAGVRTAEDARTAYETLELGADGVLLDTDEVDEIRKTVEVRDEMGRESLDLEYAEVTAIEQTGSADRVCIDTGSLMEHDEGMLVGSMARGLFFVHAETAESPYVASRPFRVNAGAVHAYVRTPDGGTKYLSELQSGDEVQIVDANGRTREAIVGRAKIEKRPMFRVQAETEDSDRIETLLQNAETIKVHTQDGRTAVTDLEPGDEILIHHEDTATHFGERIEESIIEK”, the protein production result is on record as “failed”.

Take “MTRTFDPIREMDRLLSDVTRTPATVAVPMDLYREGDDYTVAVDLPGVDPASIDIDVDDRTLTIRAERAAKVAKEAQWLSRERAMGTFARQLTLGHGLATDRITAEYTDGVLTLTIPVAETAKPRKVEVRHGSTTIDAMTDQAQVGSGEHQEQ”: the protein production entry was “failed”.

Turning to “MTRTRVIAALVMAPVAMCSILFLPTAWLASLTAIIFLWGLWEWMKLSQVEDTLVRTVLLTLNLLLMVLLVWVSAHSLVLFQIATLIGIAWWILALLWLRFLGFCADPNQRTAKIVKVTAGTLAVIPAWSALVLLHSGDKPGSTFPESLHAHLWLLTAQIMIWAADSGAYFSGRLFGKHKLAPQISPNKTVEGLLGGILTGLAVAAGFGLLNGVTMAQFPSLLLVSFVAILASVIGDLFESLLKRHAGIKDSGSMIPGHGGVLDRIDSTLAALPVFALGKDIFGF”, the protein production result is “failed”.

On to “MTRTTAVGFDRVTKGYGDVRAVDGLTLALHPGETVALLGPNGAGKSTTLDLLLGLRRPDAGTVHVFGGEPREAVVAGRVGAMLQSGGLMDEVTVAELVRLGCALHPRAYPAADVLARAGLTKIADRRVDKLSGGQAQRVRFALATAGDSDLIVLDEPTTGMDVTARQAFWATMREQADQGRTVLFATHYLEEADAIADRVLVLHRGRLLADGTAAEIKARAGTRRISFDLDGGPDASPDASPDGSRNGTVDEATLRALPHLTALDVSGRTVRIQSADADATVYALYGLGLYPRNLEVAGLGLEQAFVALTAAEEAKQP”, for which the protein production entry is given as “failed”.

Turning to “MTRVTTTGIPMNNVPSGRHHVSTSRNLFAWFLFALLLLSLYLSYQLVAPFLHTIILSSVFSASIYPFYRRLTSYLGERPVPAALLVLAGVVILVVIPVVVFVIGLIPQAVASVSAITRWLAGHGGLDGLNDAALAPYIAWVRENLPFIDPAQLDVRSSLVQASRAAGQTLLQWGTYVLGNTLLLFGHFLLLLLCMFFMLKDGAWMVQRVRYLSPLRIDQQDRIILELRRVGRSVLVGGLLVAVIQGLLGGVALAAVGIPALFWGTLMAFASLVPVVGTGLVWVPAVCYLLLTSQWESALFLSLWCGIVVVGADSILRPYFMRGGVGMPVFFIFLSILGGVKAFGMLGILDGPLILSFTVVMLSLYGDEYRDILDAGSLAHSRGAECEKGEASEEGPDGT”, the protein production result is listed as “failed”.

Regarding “MTRYLALDAFRGITIALMILVNTPGTWSHVYAPLLHAEWDGATPTDLVFPFFLFIIGSAMFFSFKKSNFSASPEQFRKIIKRGFIMFFIGFMLNVIPFTVNAEDWRIMGILQRIGIAYTVAACLVLTLNRTGVFIASAVILLAYWALLLSMGEGALTIEGNIIRQLDLAVFGANHMYTMRGVAFEPEGLLSTIPAIVNMLLGFELTRYLTSIEDKRSSVIKLTLIGGLAVGFGALWGLVLPINKSLWTPSYVIYSTGFACLLLAAFIWLIDIMKQVKLAEPLLVYGTNPLFVYVLSFLVVTMYLNINVGDVSMYAWLYKQLSGVFTPKLASFIFAFSHVAFFWYVSLKLYQRKIFIKI”, the protein production entry was “failed”.

As for “MTSGTSVINDKVLQYETFISEVLRRDLQKVLEQRDAVYEKIAQYLQLKNTIQSIQESGSKELKTDVDLGCNFYVQAHVPDASRIYVAVGYGFFVEFTHAEALKFIEKKTNQLTEYTEVLTKDAAKIKANIRMVLEGLRELQGLKDLPEDRRREVF”, the protein production result was “not failed”.

As for “MTSGVAPLPGIVSTLSAAAEAVSEALIALDADGGILVVNGAAERVFDRRRDDLIGRSLDVVFGGDFAEAMASNLSAKVDALPPAPGGGRLLRRPGLPPLALHAGFSVTGDHGRPLATIVIRDLSPRADSWLETEERLGGFAASMPGIIFQRVAHRDGSLSYPFLSSGVHAVLGYHPAEMSVALDGCLNAIHWADRESYLRRLRQSAQTLAICSEEFRAITREGAVKWLSGASQPRAMANGDILWDGVLVDVTERKRAELWLEMIMDRAADGIVTINEQGVIESANAAVGTFFGYADRGELIGRRVEILMAEADRRQHTRHMLRYRETGDGALIGAGPRELTGRRRDGTTFALELALSEVRTEGRRIFIAVIRDITQRKETEGALAATRARLQTIADNVPGLVFQRELTAEGVLRFLFVSNGVHEVLGITPEALLADGELFLGAMDPDVRAAFRETLRQSASRLEPMEEDIKLRGRDGEERWLRGWSRPSRREDGSVVWDGVTLDVTDRKRAEDKLTFLAYYDPLTGLGNRSLFIDRFDRARRFAESIQAWVAVLSIGLDRFGMVNATIGHTMGDKVLIAVTRRLQQSLEAGSIVCRAGGDRFLVLLTGLTDRADLREVVATIQDAFVPPIEVEGQQFDIGLTIGGALHPEDGREAETLIMHADAALHRAKGGGGAFQMFTPEMGARAAHLLTIQHKLRRGLERHEFVAYFQPQVDLRSGLITGCEALARWNSPEDGLVPPGKFIGVAEEYGLIDAICGQVLDDSCRWLSTWRARGLPQVPVAVNISGRQFQNARQLVAMVDQALRQSGVDPRLLELELTESSAMSDPENAIAVVNLLRERGVSCAIDDFGTGYSSLSVLKRFPIGKLKIDRSFVMDVTTDPNDAAIVQAIIAMAHALNLRVVAEGVETLDHLAFLREVHCDAVQGFLFARPLPGEDMALMLAGGPPQPNPR”, the protein production entry was “failed”.

Regarding “MTSHTLTQGGRTTATIALLLAMLLWSSSFIAMKIALTGFDPMVMIFGRMAIASVIFIAVWRRNFSGVRYRAGDWKLLGFMTMCEPCLYFVFEAYALEYTSASQAGMIVAMMPLSVAVAARFVLKEHMARSAWAGFCLAIAGVVWLSLGGQVTENAPNPMLGNALEVCAMLTATGYVISAKRLSSTYPPLFITAVQSLAGFVFFLPVLALPGVTLPTSLPLTPTLAVLYLGVCITLGAYGLYNYGVSRLPAGQAASYINLIPVLTLIMGRVVLGDELSPSQYLASLLVLAGVVLSQRRAAA”, the protein production result is “failed”.

Take “MTSKSEWSNARRIVIILADVLLYNLSIILGFMVKFGREIPSFNFVAYEKSAIYISIFFIFLNLLLGAYIFYNRKISDIIFVTVIGQILMTLTIMIVTFAGRWFTFPRSVLGYSFIIGIIVLSLWRILVYYLYLKVSNERKVVLLGKENQVMRSIQNFMSDKNNKHKVTSVVVSNYYENLKKIIDEIDIVYISSNVDENEKVKLYQLIVKHKKKIFLDTSFENLIMLKPNMMNFEDESIIEVSNFEIQPEENFIKRLFDILVSVCLFVITSPLMLIAAILVKATSPGPVIYKQTRITLDQREFSILKFRTMSATAEAKSGPVLSTSNDSRVTTVGKYLRALRIDELPQLINVIRGDMSIVGPRPERPFFVDQFNQENPNYYLRHNVRAGITGYAQVYGKYASDYNSKLNFDLLYIKNYSLLLDMKILLQTIKILFDKVSSRGLDESEEREELTMDYCKENAIRIYR”: the protein production entry was “failed”.
